Measured values from the supplement of paper PMC6757056.
± gives the standard deviation of the averaged measurements.

B1: library; a variant is named by its letters at N, in order (parent)
chain: GCUGUCACCGGUGCUUGGUACGUUAUAUUCAGCCGGUCUGAUGAGUCUNNNNNNAGACGAAACAGC

Experiments:
(6R,S)-folinic acid [1] = variants of: B1; assay: normalized RNA/DNA level without ligand (relative to sTRSVctl = 100) (log10 (% of sTRSVctl)); HEK293T overexpressing SLC46A1; higher = less ribozyme self-cleavage, higher mRNA level; settings: without (6R,S)-folinic acid; ligand present: no
Method in brief: (§1)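 HEK293T cells were transfected with library plasmids carrying ribozyme switches linked to an mCherry reporter, or an eGFP reporter in some ligand experiments, at 4 µg per well of a 6-well plate, with any ligand added 1 h beforehand. After 72 h, total RNA was extracted with EDTA, reverse-transcribed, amplified, barcoded and sequenced. RNA level was defined as RNA reads over DNA reads, normalized to a spiked-in non-cleaving sequence or to the top-ranked sequences. That value was multiplied by 100 and converted to log10, the top set was 25 sequences, and only sequences with ≥100 DNA reads were retained.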

(6R,S)-folinic acid [2] = variants of: B1; assay: normalized RNA/DNA level with ligand (relative to sTRSVctl = 100) (log10 (% of sTRSVctl)); HEK293T overexpressing SLC46A1; ligand concentration (+) RNA-Seq: 6 mM; higher = less ribozyme self-cleavage, higher mRNA level; settings: with (6R,S)-folinic acid; ligand present: yes
Method in brief: as §1

| Variant | normalized RNA/DNA level without ligand (log10) ((6R,S)-folinic acid [1]) | normalized RNA/DNA level with ligand (log10) ((6R,S)-folinic acid [2]) |
| --- | --- | --- |
| AGUACU | 2.008 ± 0.0088 | 2.02 ± 0.043 |
| GGCGCA | 2.06 ± 0.0043 | 2.051 ± 0.019 |
| ACUGCA | 2.02 ± 0.013 | 2.05 ± 0.009 |
| ACUAUC | 2.063 ± 0.0022 | 2.04 ± 0.038 |
| ACCCCU | 1.997 ± 0.0056 | 1.98 ± 0.073 |
| CCCUCG | 2.04 ± 0.025 | 1.997 ± 0.014 |
| CCGACU | 2.062 ± 0.0038 | 2.01 ± 0.027 |
| CGGACA | 2.037 ± 0.0086 | 2.02 ± 0.03 |
| AGAAGU | 1.938 ± 0.007 | 1.9746 ± 0.00065 |
| CAAUCU | 2.045 ± 0.0088 | 2.05 ± 0.028 |
| CUAGCA | 2.038 ± 0.0039 | 2.041 ± 0.0037 |
| CCCCAU | 2.031 ± 0.01 | 2.03 ± 0.045 |
| UGGUUA | 1.945 ± 0.013 | 2.01 ± 0.071 |
| GCCACC | 2.0387 ± 0.00018 | 2.01 ± 0.025 |
| CGGCUA | 2.11 ± 0.027 | 2.067 ± 0.011 |
| UACUUA | 1.9834 ± 0.00066 | 2.01 ± 0.0084 |
| UUAUUC | 2.012 ± 0.0098 | 2.02 ± 0.079 |
| UUGGUU | 2.014 ± 0.0096 | 2.052 ± 0.019 |
| GAACUA | 1.9884 ± 0.0016 | 2 ± 0.055 |
| UUCCGU | 2.0373 ± 0.0012 | 2.05 ± 0.048 |
| AUGUCC | 2.04 ± 0.026 | 2.0107 ± 0.0015 |
| UGGUGC | 2.02 ± 0.03 | 2.02 ± 0.044 |
| GCUCCC | 2.06 ± 0.031 | 2.06 ± 0.036 |
| UUGUCU | 2.053 ± 0.0052 | 2.09 ± 0.022 |

| Variant | normalized RNA/DNA level without ligand (log10) ((6R,S)-folinic acid [1]) | normalized RNA/DNA level with ligand (log10) ((6R,S)-folinic acid [2]) |
| --- | --- | --- |
| GUUCGU | 1.998 ± 0.019 | 2.01 ± 0.035 |
| ACGGAA | 1.965 ± 0.0049 | 2.024 ± 0.0076 |
| AGCGAC | 1.99 ± 0.011 | 2.0338 ± 0.00013 |
| GUCUAC | 2.004 ± 0.0042 | 2.02 ± 0.027 |
| CUUUGA | 2.024 ± 0.004 | 2.05 ± 0.036 |
| CUGAGG | 1.948 ± 0.005 | 2.02 ± 0.029 |
| GAUCUG | 2.008 ± 0.013 | 2.032 ± 0.0047 |
| GAUCUU | 2.031 ± 0.0082 | 2.02 ± 0.083 |
| CACCCA | 2.011 ± 0.017 | 2.01 ± 0.059 |
| UCUGUG | 1.773 ± 0.0022 | 2 ± 0.049 |
| CCUAUC | 2.1 ± 0.023 | 2.0649 ± 0.0011 |
| GAUGCU | 1.992 ± 0.0031 | 2 ± 0.039 |
| UAUAAC | 1.98 ± 0.0056 | 2 ± 0.029 |
| GGGGAG | 1.9915 ± 0.00084 | 2.04 ± 0.043 |
| CUGACG | 2 ± 0.006 | 2.046 ± 0.02 |
| ACAUAU | 1.94 ± 0.037 | 2.01 ± 0.022 |
| CCGGCA | 2.108 ± 0.021 | 2.049 ± 0.016 |
| UGUCUA | 1.991 ± 0.0035 | 2.02 ± 0.043 |
| CUUCUG | 2.06 ± 0.021 | 2.026 ± 0.0091 |
| UCAAUC | 2.074 ± 0.0092 | 2.06 ± 0.048 |
| AGAAAC | 2.0013 ± 0.00088 | 2.01 ± 0.026 |
| UUAUCC | 2.04 ± 0.016 | 2.01 ± 0.032 |
| AUAAUG | 1.91 ± 0.021 | 2 ± 0.043 |
| AAUCUC | 2.068 ± 0.011 | 2.04 ± 0.034 |

| Variant | normalized RNA/DNA level without ligand (log10) ((6R,S)-folinic acid [1]) | normalized RNA/DNA level with ligand (log10) ((6R,S)-folinic acid [2]) |
| --- | --- | --- |
| UUGUGA | 1.96 ± 0.0028 | 2.04 ± 0.031 |
| AAGCAC | 2.022 ± 0.0075 | 1.98 ± 0.045 |
| GGACGC | 1.949 ± 0.0027 | 1.96 ± 0.025 |
| CUGUGA | 2.028 ± 0.0096 | 2.04 ± 0.035 |
| GCGGUU | 2.07 ± 0.0088 | 2.02 ± 0.05 |
| AGUUAA | 1.9569 ± 0.00052 | 1.99 ± 0.024 |
| UUCAUU | 2.025 ± 0.0078 | 2.01 ± 0.053 |
| UCCACA | 1.985 ± 0.0093 | 2 ± 0.046 |
| AUUAGU | 1.95 ± 0.028 | 2.01 ± 0.028 |
| CGAUAA | 1.946 ± 0.015 | 1.98 ± 0.04 |
| ACCAGU | 2.005 ± 0.0042 | 2.02 ± 0.013 |
| UCUAAG | 1.815 ± 0.014 | 2 ± 0.045 |
| GAAAGU | 1.9823 ± 0.00097 | 2.02 ± 0.034 |
| CAACUU | 2.039 ± 0.012 | 2.03 ± 0.052 |
| AGUGCC | 2.072 ± 0.014 | 2.07 ± 0.035 |
| GGUCAG | 2.039 ± 0.018 | 2.04 ± 0.035 |
| GCGAUU | 2.032 ± 0.016 | 2.04 ± 0.048 |
| GGUACC | 2.067 ± 0.015 | 2.03 ± 0.04 |
| UGCGGA | 1.886 ± 0.0066 | 2.01 ± 0.04 |
| UGAAUU | 1.986 ± 0.0089 | 2 ± 0.036 |
| CGCGAG | 1.98 ± 0.039 | 2 ± 0.037 |
| AUCUAG | 1.974 ± 0.013 | 2.021 ± 0.0074 |
| UUUGUC | 2.069 ± 0.018 | 2.034 ± 0.02 |
| GUCUGU | 2.016 ± 0.0056 | 2.06 ± 0.027 |

| Variant | normalized RNA/DNA level without ligand (log10) ((6R,S)-folinic acid [1]) | normalized RNA/DNA level with ligand (log10) ((6R,S)-folinic acid [2]) |
| --- | --- | --- |
| GUUGCA | 2 ± 0.011 | 2.01 ± 0.038 |
| UCUCAA | 1.96 ± 0.0096 | 1.98 ± 0.024 |
| CGUAGC | 2.03 ± 0.023 | 2.03 ± 0.022 |
| AUCGAU | 1.98 ± 0.025 | 2.02 ± 0.031 |
| CAUGCA | 1.996 ± 0.0096 | 2.01 ± 0.022 |
| AAGCGG | 1.941 ± 0.005 | 2 ± 0.054 |
| GUACCG | 2.088 ± 0.0044 | 2.06 ± 0.014 |
| CUUAAU | 1.989 ± 0.0044 | 2.001 ± 0.011 |
| CCGUGG | 2.022 ± 0.02 | 2.06 ± 0.023 |
| AGUCUA | 1.992 ± 0.0093 | 2.02 ± 0.05 |
| AGUCUG | 1.972 ± 0.0057 | 2.04 ± 0.048 |
| UACUCA | 1.9962 ± 0.00016 | 1.98 ± 0.038 |
| AUAGUC | 2.056 ± 0.0045 | 2.03 ± 0.033 |
| CCACCG | 2.007 ± 0.018 | 2.01 ± 0.054 |
| ACACAG | 1.953 ± 0.0027 | 2.01 ± 0.048 |
| GCUGAC | 1.986 ± 0.0051 | 2.01 ± 0.045 |
| UUGGAU | 1.971 ± 0.012 | 2.022 ± 0.012 |
| AGUCCU | 2.048 ± 0.0074 | 2.05 ± 0.029 |
| ACAGCU | 2.06 ± 0.024 | 2.059 ± 0.004 |
| UUAAUC | 2.0392 ± 0.0017 | 2.03 ± 0.034 |
| AAACGC | 1.996 ± 0.006 | 2.01 ± 0.032 |
| UUCCAU | 1.99 ± 0.023 | 1.99 ± 0.049 |
| CAUAGG | 1.911 ± 0.019 | 1.998 ± 0.0083 |
| CGAGCC | 2.06 ± 0.028 | 2.03 ± 0.039 |

| Variant | normalized RNA/DNA level without ligand (log10) ((6R,S)-folinic acid [1]) | normalized RNA/DNA level with ligand (log10) ((6R,S)-folinic acid [2]) |
| --- | --- | --- |
| ACUGGC | 2.045 ± 0.016 | 2.005 ± 0.016 |
| GAGGCC | 2.041 ± 0.0098 | 2.044 ± 0.012 |
| GUACAU | 1.965 ± 0.005 | 2.01 ± 0.034 |
| UAGUUA | 1.932 ± 0.015 | 1.984 ± 0.0094 |
| UCGGAC | 2.048 ± 0.0021 | 2.0514 ± 0.00022 |
| ACAAGC | 2.033 ± 0.01 | 2.02 ± 0.04 |
| CACCAG | 1.977 ± 0.019 | 2 ± 0.036 |
| UUUUUC | 2.05 ± 0.026 | 2.01 ± 0.026 |
| UUUUUU | 2.017 ± 0.014 | 2.03 ± 0.032 |
| UCCUCA | 2.046 ± 0.013 | 2.07 ± 0.034 |
| UAAUAC | 1.941 ± 0.0049 | 1.96 ± 0.021 |
| AGCAGG | 1.944 ± 0.0028 | 2.01 ± 0.042 |
| AUCAAU | 1.989 ± 0.0025 | 2 ± 0.053 |
| CUCUGG | 2.04 ± 0.021 | 2.04 ± 0.028 |
| AAGCCA | 2.009 ± 0.0029 | 2.03 ± 0.022 |
| GGCAAG | 2.034 ± 0.007 | 2.003 ± 0.017 |
| ACGGUC | 2.088 ± 0.0078 | 2.06 ± 0.036 |
| GCGCUG | 2.11 ± 0.022 | 2.1 ± 0.024 |
| CAGGGC | 1.994 ± 0.013 | 2.03 ± 0.046 |
| CAGGGG | 1.87 ± 0.049 | 1.996 ± 0.016 |
